US20240218035

Molecular target: inactive hepatocyte growth factor (pro-HGF), single-stranded form, in CHO culture supernatant
Sequence (chain, as listed by the source): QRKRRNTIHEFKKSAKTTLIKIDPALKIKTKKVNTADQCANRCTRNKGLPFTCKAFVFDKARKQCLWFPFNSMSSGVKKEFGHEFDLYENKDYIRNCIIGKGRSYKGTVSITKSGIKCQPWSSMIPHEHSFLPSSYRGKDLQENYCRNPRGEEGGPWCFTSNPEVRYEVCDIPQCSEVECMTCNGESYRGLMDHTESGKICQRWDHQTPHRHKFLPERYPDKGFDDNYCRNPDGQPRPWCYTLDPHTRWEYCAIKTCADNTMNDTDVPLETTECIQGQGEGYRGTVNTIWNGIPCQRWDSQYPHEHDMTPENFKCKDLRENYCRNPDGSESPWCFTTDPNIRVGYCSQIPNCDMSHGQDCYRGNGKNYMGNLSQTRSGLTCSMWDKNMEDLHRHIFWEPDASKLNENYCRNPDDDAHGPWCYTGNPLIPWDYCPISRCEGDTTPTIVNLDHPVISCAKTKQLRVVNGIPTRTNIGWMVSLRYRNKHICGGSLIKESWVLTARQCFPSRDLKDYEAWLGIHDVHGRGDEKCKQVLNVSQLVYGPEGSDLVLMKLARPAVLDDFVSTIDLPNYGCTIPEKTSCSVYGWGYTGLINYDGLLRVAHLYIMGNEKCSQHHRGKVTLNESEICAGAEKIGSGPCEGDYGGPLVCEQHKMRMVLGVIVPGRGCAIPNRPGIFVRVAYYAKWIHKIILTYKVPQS

B1: active hepatocyte growth factor activator (active HGFA), as activated HGFA culture supernatant from CHO cells (protein)
chain: VQLSPDLLATLPEPASPGRQACGRRHKKRTFLRPRIIGGSSSLPGSHPWLAAIYIGDSFCAGSLVHTCWVVSAAHCFSHSPPRDSVSVVLGQHFFNRTTDVTQTFGIEKYIPYTLYSVFNPSDHDLVLIRLKKKGDRCATRSQFVQPICLPEPGSTFPAGHKCQIAGWGHLDENVSGYSSSLREALVPLVADHKCSSPEVYGADISPNMLCAGYFDCKSDACQGDSGGPLACEKNGVAYLYGIISWGDGCGRLHKPGVYTRVANYVDWINDRIRPPRRLVAPS
activation state of pro-HGF confirmed with SDS-PAGE (conversion of the single strand into α and β chains) after about 20 hours of reaction at 25° C.: under a reductive condition after activation the single strand substance had disappeared and separated into α and β chains, and thus sufficient activation of pro-HGF was confirmed
